Assay [1] addresses T1, human PD-1 (human, UniProt Q15116 25-167, limits assumed).
T1 construct: also called hPD-1
Nature of the assay: rounded restatement of Tables 14 and 15.

Assay [2] deals with T2, mouse PD-1 (mouse, UniProt Q02242 25-167, limits assumed).
T2 construct: also called mPD-1
T2 sequence (looked up): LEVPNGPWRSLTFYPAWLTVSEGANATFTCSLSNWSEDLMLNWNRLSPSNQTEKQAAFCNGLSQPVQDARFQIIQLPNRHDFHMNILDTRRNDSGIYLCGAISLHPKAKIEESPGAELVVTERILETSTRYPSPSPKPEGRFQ
Description: rounded restatement of Tables 14 and 15.

The target in assay [3] is T2, mouse PD-1. Nature of the assay: same value as Table 15 (measured in PD-L2-Fc format).
Assay [4] addresses human PD-1 on cells (HEK-PD-1 reporter cells; activated PBMC) (human, UniProt Q15116 25-288). Nature of the assay: cell-based or functional assay.
The target of assay [5] is human IL-12 receptor complex (IL-12Rβ1 and IL-12Rβ2) (human, UniProt P42701 24-662; Q99665 24-862). Nature of the assay: cell-based or functional assay.
Sequence of human IL-12 receptor complex (IL-12Rβ1 and IL-12Rβ2) (Q99665 24-862, chain 2 of 2, other chains not shown): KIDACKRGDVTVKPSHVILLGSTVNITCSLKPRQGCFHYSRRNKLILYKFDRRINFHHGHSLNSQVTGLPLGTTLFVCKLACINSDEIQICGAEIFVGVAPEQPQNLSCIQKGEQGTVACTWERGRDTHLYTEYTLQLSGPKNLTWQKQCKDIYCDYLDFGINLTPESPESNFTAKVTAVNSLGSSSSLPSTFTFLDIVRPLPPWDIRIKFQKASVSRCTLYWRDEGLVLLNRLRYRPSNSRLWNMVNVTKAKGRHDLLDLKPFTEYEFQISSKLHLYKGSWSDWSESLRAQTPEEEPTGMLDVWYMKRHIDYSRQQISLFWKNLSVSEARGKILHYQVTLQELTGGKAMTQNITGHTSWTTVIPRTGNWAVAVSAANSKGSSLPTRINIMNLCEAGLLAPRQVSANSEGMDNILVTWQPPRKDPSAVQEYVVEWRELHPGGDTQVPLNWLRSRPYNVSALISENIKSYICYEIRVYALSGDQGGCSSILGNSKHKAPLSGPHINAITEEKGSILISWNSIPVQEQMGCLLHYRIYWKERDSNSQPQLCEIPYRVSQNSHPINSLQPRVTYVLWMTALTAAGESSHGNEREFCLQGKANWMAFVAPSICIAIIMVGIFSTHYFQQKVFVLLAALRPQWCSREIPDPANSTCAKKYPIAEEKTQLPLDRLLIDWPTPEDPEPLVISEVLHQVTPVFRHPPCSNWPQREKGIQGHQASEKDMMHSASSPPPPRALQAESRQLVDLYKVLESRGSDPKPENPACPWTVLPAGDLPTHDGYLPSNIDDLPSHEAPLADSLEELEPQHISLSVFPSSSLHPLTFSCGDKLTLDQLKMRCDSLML
Assay [6] deals with T3, human IL-2 receptor (IL-2Rα, IL-2Rβ, IL-2Rγ) (human, UniProt P01589 22-272; P14784 27-551; P31785 23-369).
T3 sequence (looked up) 1: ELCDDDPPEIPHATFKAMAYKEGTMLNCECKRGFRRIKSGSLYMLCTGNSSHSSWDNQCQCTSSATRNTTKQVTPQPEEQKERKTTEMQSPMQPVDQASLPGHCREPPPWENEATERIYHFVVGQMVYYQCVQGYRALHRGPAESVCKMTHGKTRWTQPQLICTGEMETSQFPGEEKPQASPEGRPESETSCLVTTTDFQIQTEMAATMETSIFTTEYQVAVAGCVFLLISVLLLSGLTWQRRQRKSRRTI
T3 sequence (looked up) 2: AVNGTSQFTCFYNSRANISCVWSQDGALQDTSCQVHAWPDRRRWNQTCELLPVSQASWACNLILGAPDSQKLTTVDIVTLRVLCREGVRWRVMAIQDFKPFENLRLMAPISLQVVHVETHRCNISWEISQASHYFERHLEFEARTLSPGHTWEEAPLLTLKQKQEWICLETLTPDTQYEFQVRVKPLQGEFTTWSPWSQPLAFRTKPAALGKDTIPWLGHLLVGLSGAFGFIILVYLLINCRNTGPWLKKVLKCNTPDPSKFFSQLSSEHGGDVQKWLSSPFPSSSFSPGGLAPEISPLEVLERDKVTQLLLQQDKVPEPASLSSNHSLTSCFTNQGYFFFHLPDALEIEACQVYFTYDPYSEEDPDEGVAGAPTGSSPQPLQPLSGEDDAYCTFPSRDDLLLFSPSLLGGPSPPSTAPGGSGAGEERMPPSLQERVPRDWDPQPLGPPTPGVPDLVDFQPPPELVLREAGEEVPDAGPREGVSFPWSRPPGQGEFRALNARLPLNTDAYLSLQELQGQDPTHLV
T3 sequence (looked up) 3: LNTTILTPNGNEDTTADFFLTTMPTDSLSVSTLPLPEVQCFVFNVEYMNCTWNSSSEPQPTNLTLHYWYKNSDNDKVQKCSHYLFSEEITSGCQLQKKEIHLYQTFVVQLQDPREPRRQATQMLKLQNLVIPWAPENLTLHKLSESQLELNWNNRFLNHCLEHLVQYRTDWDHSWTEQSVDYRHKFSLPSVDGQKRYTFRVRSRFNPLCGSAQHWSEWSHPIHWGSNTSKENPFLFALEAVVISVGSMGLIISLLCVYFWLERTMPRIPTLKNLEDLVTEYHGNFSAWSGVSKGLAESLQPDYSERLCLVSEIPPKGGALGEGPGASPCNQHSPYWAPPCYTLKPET
Description: cell-based or functional assay.

Assay [7] has as its target T2, mouse PD-1. Nature of the assay: same value as Table 14 (measured in PD-L1-Fc format).
Assay [8] addresses T1, human PD-1. Description: PD-L2-Fc format, method not stated.
The target in assay [9] is T2, mouse PD-1. Nature of the assay: PD-L2-Fc format, method not stated.

The Kd is the constant that tells how readily two partners part at equilibrium.

T1 sequence (Q15116 25-167 limits assumed): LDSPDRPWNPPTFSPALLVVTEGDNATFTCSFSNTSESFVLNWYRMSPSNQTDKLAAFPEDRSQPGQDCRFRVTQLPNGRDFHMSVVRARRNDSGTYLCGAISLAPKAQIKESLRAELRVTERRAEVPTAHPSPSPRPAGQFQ
Sequence of human PD-1 on cells (HEK-PD-1 reporter cells; activated PBMC) (Q15116 25-288): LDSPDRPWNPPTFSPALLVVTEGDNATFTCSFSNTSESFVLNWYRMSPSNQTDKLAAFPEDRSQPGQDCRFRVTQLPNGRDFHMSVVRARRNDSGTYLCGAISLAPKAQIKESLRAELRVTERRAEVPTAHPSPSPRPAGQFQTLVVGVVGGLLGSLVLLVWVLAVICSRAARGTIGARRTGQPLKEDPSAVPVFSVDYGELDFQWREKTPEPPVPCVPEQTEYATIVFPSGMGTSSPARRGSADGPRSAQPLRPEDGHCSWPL

B1: IL-12(E59A/F60A)/PD-L2(S58V)-Fc (IL-12 at hinge) (Fc fusion)
chain 1: LFTVTVPKELYIIEHGSNVTLECNFDTGSHVNLGAITAVLQKVENDTSPHRERATLLEEQLPLGKASFHIPQVQVRDEGQYQCIIIYGVAWDYKYLTLKVKASYRKINTHILKVPETDEVELTCQATGYPLAEVSWPNVSVPANTSHSRTPEGLYQVTSVLRLKPPPGRNFSCVFWNTHVRELTLASIDLQSQMEPRTHPTGGGGSGGGIWELKKDVYVVELDWYPDAPGEMVVLTCDTPEEDGITWTLDQSSEVLGSGKTLTIQVKAAGDAGQYTCHKGGEVLSHSLLLLHKKEDGIWSTDILKDQKEPKNKTFLRCEAKNYSGRFTCWWLTTISTDLTFSVKSSRGSSDPQGVTCGAATLSAERVRGDNKEYEYSVECQEDSACPAAEESLPIEVMVDAVHKLKYENYTSSFFIRDIIKPDPPKNLQLKPLKNSRQVEVSWEYPDTWSTPHSYFSLTFCVQVQGKSKREKKDRVFTDKTSATVICRKNASISVRAQDRYYSSSWSEWASVPCSGGGGSGGGSGGGGSRNLPVATPDPGMFPCLHHSQNLLRAVSNMLQKARQTLEFYPCTSEEIDHEDITKDKTSTVEACLPLELTKNESCLNSRETSFITNGSCLASRKTSFMMALCLSSIYEDLKMYQVEFKTMNAKLLMDPKRQIFLDQNMLAVIDELMQALNFNSETVPQKSSLEEPDFYKTKIKLCILLHAFRIRAVTIDRVMSYLNASGGGGSGGGDKTHTCPPCPAPEDEGGPSVFLFPPKPKDTLMISRTPEVTCVVVDVSHEDPEVKFNWYVDGVEVHNAKTKPREEQYNSTYRVVSVLTVLHQDWLNGKEYKCKVSNKALPAPIEKTISKAKGQPREPQVYVYPPSREEMTKNQVSLTCLVKGFYPSDIAVEWESNGQPENNYKTTPPVLDEDGSFALVSKLTVDKSRWQQGNVFSCSVMHEALHNHYTQKSLSLSPGK
chain 2: LFTVTVPKELYIIEHGSNVTLECNFDTGSHVNLGAITAVLQKVENDTSPHRERATLLEEQLPLGKASFHIPQVQVRDEGQYQCIIIYGVAWDYKYLTLKVKASYRKINTHILKVPETDEVELTCQATGYPLAEVSWPNVSVPANTSHSRTPEGLYQVTSVLRLKPPPGRNFSCVFWNTHVRELTLASIDLQSQMEPRTHPTGGGGSGGGDKTHTCPPCPAPEKKGGPSVFLFPPKPKDTLMISRTPEVTCVVVDVSHEDPEVKFNWYVDGVEVHNAKTKPREEQYNSTYRVVSVLTVLHQDWLNGKEYKCKVSNKALPAPIEKTISKAKGQPREPQVYVLPPSREEMTKNQVSLLCLVKGFYPSDIAVEWESNGQPENRYMTWPPVLDSDGSFFLYSKLTVDKSRWQQGNVFSCSVMHEALHNHYTQKSLSLSPGK
notes: also called IL-12(E59A/F60A)/PD-L2(mut2)-Fc
On to B1, for which the Kd in assay [1] is ~100 nM; in assay [2] it was ~100 nM; in assay [3] it was 230 nM.

B2: IL-12(E59A/F60A)/PD-L1(mut2)-Fc (IL-12 at hinge) (Fc fusion)
chain 1: FTVTVPKDLYVVEYGSNMTIECKFPVEKQLDLAALQVYWMMEDKNIIQFVHGEEDLKVQHSSYRQRARLLKDQLSLGNAALQITDVKLQDAGVYTCLIAYKGADYKRITVKVNAPYNKINQRILVVDPVTSEHELTCQAEGYPKAEVIWTSSDHQVLSGKTTTTNSKREEKLFNVTSTLRINTTTNEIFYCTFRRLDPEENHTAELVIPELPLAHPPNERGGGGSGGGIWELKKDVYVVELDWYPDAPGEMVVLTCDTPEEDGITWTLDQSSEVLGSGKTLTIQVKAAGDAGQYTCHKGGEVLSHSLLLLHKKEDGIWSTDILKDQKEPKNKTFLRCEAKNYSGRFTCWWLTTISTDLTFSVKSSRGSSDPQGVTCGAATLSAERVRGDNKEYEYSVECQEDSACPAAEESLPIEVMVDAVHKLKYENYTSSFFIRDIIKPDPPKNLQLKPLKNSRQVEVSWEYPDTWSTPHSYFSLTFCVQVQGKSKREKKDRVFTDKTSATVICRKNASISVRAQDRYYSSSWSEWASVPCSGGGGSGGGSGGGGSRNLPVATPDPGMFPCLHHSQNLLRAVSNMLQKARQTLEFYPCTSEEIDHEDITKDKTSTVEACLPLELTKNESCLNSRETSFITNGSCLASRKTSFMMALCLSSIYEDLKMYQVEFKTMNAKLLMDPKRQIFLDQNMLAVIDELMQALNFNSETVPQKSSLEEPDFYKTKIKLCILLHAFRIRAVTIDRVMSYLNASGGGGSGGGDKTHTCPPCPAPEDEGGPSVFLFPPKPKDTLMISRTPEVTCVVVDVSHEDPEVKFNWYVDGVEVHNAKTKPREEQYNSTYRVVSVLTVLHQDWLNGKEYKCKVSNKALPAPIEKTISKAKGQPREPQVYVYPPSREEMTKNQVSLTCLVKGFYPSDIAVEWESNGQPENNYKTTPPVLDEDGSFALVSKLTVDKSRWQQGNVFSCSVMHEALHNHYTQKSLSLSPGK
chain 2: FTVTVPKDLYVVEYGSNMTIECKFPVEKQLDLAALQVYWMMEDKNIIQFVHGEEDLKVQHSSYRQRARLLKDQLSLGNAALQITDVKLQDAGVYTCLIAYKGADYKRITVKVNAPYNKINQRILVVDPVTSEHELTCQAEGYPKAEVIWTSSDHQVLSGKTTTTNSKREEKLFNVTSTLRINTTTNEIFYCTFRRLDPEENHTAELVIPELPLAHPPNERGGGGSGGGDKTHTCPPCPAPEKKGGPSVFLFPPKPKDTLMISRTPEVTCVVVDVSHEDPEVKFNWYVDGVEVHNAKTKPREEQYNSTYRVVSVLTVLHQDWLNGKEYKCKVSNKALPAPIEKTISKAKGQPREPQVYVLPPSREEMTKNQVSLLCLVKGFYPSDIAVEWESNGQPENRYMTWPPVLDSDGSFFLYSKLTVDKSRWQQGNVFSCSVMHEALHNHYTQKSLSLSPGK
notes: also called IL-12(E59A/F60A)/PD-L1(I54Q/E58M/R113T/M115L/S117A/G119K)-Fc
Turning to B2, the “IL-2 signal transduction, HEK-IL-2-PD-1” value in [4] is < 0.1%. The “IL-12 signal transduction, HEK-IL-12-PD-1” value in assay [4] amounted to 24%. Besides, the “IL-12 signal transduction, HEK-IL-12” value in assay [5] was < 0.2%. Also, the “IL-2 signal transduction, HEK-IL-2” value in assay [6] was < 0.1%. Also, the Kd in assay [1] was ~100 nM; in assay [2] it was ~100 nM; in [7], 120 nM.

B3: PD-L2(wt)-Fc (heterodimer) (Fc fusion)
chain 1: LFTVTVPKELYIIEHGSNVTLECNFDTGSHVNLGAITASLQKVENDTSPHRERATLLEEQLPLGKASFHIPQVQVRDEGQYQCIIIYGVAWDYKYLTLKVKASYRKINTHILKVPETDEVELTCQATGYPLAEVSWPNVSVPANTSHSRTPEGLYQVTSVLRLKPPPGRNFSCVFWNTHVRELTLASIDLQSQMEPRTHPTDKTHTCPPCPAPEDEGGPSVFLFPPKPKDTLMISRTPEVTCVVVDVSHEDPEVKFNWYVDGVEVHNAKTKPREEQYNSTYRVVSVLTVLHQDWLNGKEYKCKVSNKALPAPIEKTISKAKGQPREPQVYVYPPSREEMTKNQVSLTCLVKGFYPSDIAVEWESNGQPENNYKTTPPVLDEDGSFALVSKLTVDKSRWQQGNVFSCSVMHEALHNHYTQKSLSLSPGK
chain 2: LFTVTVPKELYIIEHGSNVTLECNFDTGSHVNLGAITASLQKVENDTSPHRERATLLEEQLPLGKASFHIPQVQVRDEGQYQCIIIYGVAWDYKYLTLKVKASYRKINTHILKVPETDEVELTCQATGYPLAEVSWPNVSVPANTSHSRTPEGLYQVTSVLRLKPPPGRNFSCVFWNTHVRELTLASIDLQSQMEPRTHPTDKTHTCPPCPAPEKKGGPSVFLFPPKPKDTLMISRTPEVTCVVVDVSHEDPEVKFNWYVDGVEVHNAKTKPREEQYNSTYRVVSVLTVLHQDWLNGKEYKCKVSNKALPAPIEKTISKAKGQPREPQVYVLPPSREEMTKNQVSLLCLVKGFYPSDIAVEWESNGQPENRYMTWPPVLDSDGSFFLYSKLTVDKSRWQQGNVFSCSVMHEALHNHYTQKSLSLSPGK
Regarding B3, the Kd in [8] was 1200 nM; in assay [9], 980 nM.
